# Like-named read-outs stand apart in the source and are kept apart here.
# Key:
# [1] = system: HEK293/hPRLR (293/hPRLR) cells; test: Cell viability (cell kill) assay; format: cell-based, human; details: 3 days
# Text: PRLR-overexpressing cells, including HEK293, PC3, MCF7 and NCI-N87, were generated to assess the ability of anti-PRLR conjugated antibodies to reduce cell viability. For comparative purposes, PC3 and T47D cells with overexpressed ErbB2 were also generated, as well as an MCF7 cell line over-expressing both hPRLR and hErbB2. Briefly, Lipofectamine® 2000-mediated transfection methodology was utilized to generate HEK293 cells expressing human PRLR (HEK293/hPRLR) or human ErbB2 (HEK293/hErbB2). Lipofectamine LTX with Plus Reagent was used to generate PC3 cells expressing human PRLR (PC3/hPRLR) or human ErbB2 (PC3/hErbB2). Lentiviral-mediated transduction was utilized to generate MCF7 cells expressing human PRLR (MCF7/hPRLR), NCI-N87 cells expressing human PRLR (NCI-N87/hPRLR), T47D cells over-expressing human ErbB2 (T47D/hErbB2), and MCF7 cells expressing both human PRLR and human ErbB2 (MCF7/hPRLR/hErbB2). All lines were selected for at least two weeks in complete growth media plus appropriate selection reagents. Stably expressing populations were enriched for PRLR expression via FACS using the anti PRLR antibody Control I.
# Next, the ability of anti-PRLR-DM1 antibody-drug conjugates (i.e., anti-PRLR antibodies conjugated to DM1 via a non-cleavable linker [SMCC]) to reduce cell viability was determined using in vitro cell based assays. Cells were seeded in PDL-coated 96 well plates at 1500 to 10000 cells per well in complete growth media and allowed to grow overnight. For cell viability curves, ADCs or free DM1 (as the methyl disulfide derivative DM1-SMe) were added to the cells at final concentrations ranging from 500 nM to 5 pM and incubated for 3 days. The 293, PC3 and T47D cells were incubated with CCK8 (Dojindo, Rockville, Md.) for the final 1-3 hours and the absorbance at 450 nm (OD450) was determined on a Flexstation3 (Molecular Devices, Sunnyvale, Calif.). MCF7 cells were treated with Hoechst 33342 nuclear stain while being fixed with 4% formaldehyde. Images were acquired on the ImageXpress micro XL (Molecular Devices, Sunnyvale, Calif.) and nuclear counts were determined via Columbus image analysis software (Perkin Elmer, Shelton, Conn.). Background OD450 values (PC3, 293, and T47D) or nuclear counts (MCF7) from digitonin (40 nM) treated cells was subtracted from all wells and viability was expressed as a percentage of the untreated controls. IC50 values were determined from a four-parameter logistic equation over a 10-point response curve (GraphPad Prism).
# [2] = Conjugate characterization: protein and linker/payload concentrations, payload loading (UV, MALDI-TOF, SEC-HPLC, RP-HPLC); format: physicochemical; details: Anti-PRLR-SMCC-DM1 conjugates; Table 9
# Summary of the method: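 Anti-PRLR antibodies were conjugated to DM1 via an SMCC linker, then purified by size exclusion and sterile filtered. Protein and linker/payload concentrations came from UV and MALDI-TOF, and monomer content and free linker-payload from SEC-HPLC and RP-HPLC. Payload loading was determined by UV and by native-versus-conjugated mass difference, with yields based on protein.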
# [3] = system: MCF7/hPRLR (MCF7/PRLR) cells; test: Cell viability (cell kill) assay, nuclear counts; format: cell-based, human
# Summary of the method: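 Anti-PRLR ADCs or free DM1-SMe were added at 500 nM to 5 pM final to cells seeded overnight and were incubated 3 days. MCF7 lines were fixed with 4% formaldehyde plus Hoechst 33342, and nuclei were counted by imaging, with digitonin […] background subtracted. Viability was expressed as % of untreated cells, and IC50 was obtained from a 4-parameter fit of a 10-point curve.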
# HEK293 (293) cells = test: Cell viability (cell kill) assay; format: cell-based
# Summary of the method: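 Anti-PRLR–DM1 ADCs (non-cleavable SMCC linker) or free DM1-SMe, 500 nM to 5 pM for 3 days on parental or hPRLR-overexpressing lines. HEK293: CCK8 OD450; MCF7: Hoechst nuclear counts by imaging.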
# SK-BR-3 cells = test: Cell viability (cell kill) assay; format: cell-based; details: Table 16
# PC3/hPRLR cells = test: Cell viability (cell kill) assay; format: cell-based, human
# Summary of the method: (§1)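 PC3 and PC3/hPRLR (lipofection-generated, FACS-enriched for PRLR) cells exposed 3 days to anti-PRLR ADCs or free DM1-SMe, 500 nM to 5 pM. Viability by CCK8 OD450, digitonin background subtracted, as % of untreated; IC50 from four-parameter fit of 10-point curves.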
# PC3 cells = test: Cell viability (cell kill) assay; format: cell-based
# Summary of the method: as §1
# [4] = 293/PRLR, Table 11, read-out: IC50
molecule,measurement,setting,value
H1H6953N-DM1 (conjugate) VH: EVQLLESGGGLVQPGGTLRLSCAASGFTFSAYAMSWVRQAPGKGLEWVSSINVRAGDTYYADSVKGRFTISRDNSKNTLFLLMNSLRAEDTAAYYCAKARYSSNWGFDFWGQGTLVTVSS VL: DIVMTQSPDSLTVSLGARTTINCQSSQTILHSSNNHNYLAWYQQKPGLPPKLLIYWSSTRESGVPDRFSGSGSGTDFTLTISSLQAEDVAIYYCQQYSNTPYTFGQGTKLEIN,% Kill,"[1]; 293/PRLR, Table 11",95%
same,IC50,[1]; [4],0.28 nM
same,IC50,"[1]; 293/hPRLR cells (PRLR 18× above background), read-out: IC50, cell viability",0.43 nM
same,Payload:Antibody Molar Ratio (MS),[2],2.7
same,Payload:Antibody Molar Ratio (UV),[2],3.2
same,% Kill,"[3]; Table 12, 3 days",76%
same,IC50,"[3]; Table 12, 3 days",0.29 nM
same,% Kill,[3]; Table 17,76%
same,IC50,[3]; Table 17,0.33 nM
same,IC50,"HEK293 (293) cells; 293, Table 11, 3 days",100 nM
same,IC50,"HEK293 (293) cells; 293, Table 14",100 nM
same,IC50,SK-BR-3 cells,100 nM
same,% Kill,"PC3/hPRLR cells; PC3/PRLR, Table 11, 3 days",67%
same,IC50,"PC3/hPRLR cells; PC3/PRLR, Table 11, 3 days",0.86 nM
same,% Kill,"PC3/hPRLR cells; PC3/PRLR, Table 15",76%
same,IC50,"PC3/hPRLR cells; PC3/PRLR, Table 15",0.68 nM
same,% Kill,PC3 cells; Table 15,80%
same,IC50,PC3 cells; Table 15,100 nM
H1H6958N2-DM1: anti-PRLR antibody H1H6958N2 conjugated to DM1 through an SMCC linker (conjugate) VH: QVQLVESGGGVVQPGRSLRLSCGASGFTFRNYGMQWVRQGPGKGLEWVTLISFDGNDKYYADSVKGRFTISRDNSKNTLFLQMNSLRTEDTAVYYCARGGDFDYWGQGTLVTVSS VL: DIQMTQSPSSLSASVGDRVTITCRASQDIRKDLGWYQQKPGKAPKRLIYAASSLHSGVPSRFSGSGSGTEFTLTISSLQPEDFATYYCLQHNSYPMYTFGQGTKLEIK,% Kill,"[1]; 293/PRLR, Table 11",95%
same,IC50,[1]; [4],0.1 nM
same,Payload:Antibody Molar Ratio (MS),[2],3.4
same,Payload:Antibody Molar Ratio (UV),[2],4.0
same,% Kill,"[3]; Table 12, 3 days",77%
same,IC50,"[3]; Table 12, 3 days",0.19 nM
same,% Kill,[3]; Table 18,83%
same,IC50,[3]; Table 18,0.2 nM
same,% Kill,[3]; Table 20,80%
same,IC50,[3]; Table 20,0.2 nM
same,% Kill,"HEK293 (293) cells; 293, Table 19",90%
same,IC50,"HEK293 (293) cells; 293, Table 19",100 nM
same,% Kill,"HEK293 (293) cells; HEK293, Table 13, without PRL",88%
same,IC50,"HEK293 (293) cells; HEK293, Table 13, without PRL",90 nM
same,% Kill,"PC3/hPRLR cells; PC3/PRLR, Table 11, 3 days",83%
same,IC50,"PC3/hPRLR cells; PC3/PRLR, Table 11, 3 days",0.43 nM
same,% Kill,"PC3/hPRLR cells; PC3/hPRLR, Table 18",79%
same,IC50,"PC3/hPRLR cells; PC3/hPRLR, Table 18",0.5 nM
same,% Kill,"PC3 cells; Table 11, 3 days",83%
same,IC50,"PC3 cells; Table 11, 3 days",150 nM
